Consider 23 sequences from the DeepSol protein solubility set.

The data set is described as follows: soluble on expression in E. coli; label from the status in PepcDB or PDB records.
Turning to “MGSDKIHHHHHHMIKLAQPQAQRLVLLLAGAVRSVLLYPGSHPAVVQQFAHLGSHVTELLRAYPEVRIGIIDGVLFCENHLFFTPTAAEEELAALLTNRHVEAVAFRAGLTPLELERFVELLTRRELLGEQLVAEVKRAGIAAISVELCGSGATEDHSQGDDEYDPGTTYREALDVVTGLFSEVEKGRIPSSDKLRGVVDRMATMIMQDRATLLGLAMIKDYDNYTFCHSVNVGILSMSLGAAAGLQRDELGELGMAGFLHDVGKTRVEITILNKPGRLSSDEYERMKMHSEEGARIVGEMPGVGERIARAVLGHHIRFDRAGYPESARALAFDRFCDIIAVADCYDAITTLRVYKSPLNPKDALLKLRSLAGSHLDSGLVQAFTEMMGRYPVGTLVRLDTNEVAVVFRPDPNGGERPVVKVVADPAGRLLDPAHMKNLARETGTRIVSVVDPLMTAIDVNRYLG”, the “soluble on expression in E. coli” value is reported as “not soluble”.
Turning to “MGSDKIHHHHHHMSLRDKIEELKKIEKEIEQGGGPEKVEKQHRAGKLTAWERLELLLDPGTFVEIDKFVEHRNTYFGLDKVKLPRDGVITGVGEINGRKVAVFSQDFTVMGGSLGEMHAKKIVKLLDLALKMGIPVIGINDSGGARIQEGVDALAGYGEIFLRNTLASGVVPQITVIAGPCAGGAVYSPALTDFIVMVDQTARMFITGPNVIKAVTGEEISQEDLGGAMVHNQKSGNAHFLADNDEKAMSLVRTLLSYLPSNNAEEPPVEDPDTSLETPEDILDILPDNPNKGYDVRDVIKRVVDHGEFFEVQPYFAKNIVIGFARIQGKTVGIVANQPSVLAGVLDIDSSDKAARFIRFLDAFNIPILTFVDTPGYLPGVAQEHGGIIRHGAKLLYAYSEATVPKITVILRKAYGGAYIAMGSKHLGADMVLAWPSAEIAVMGPEGAANIIFKREIEASSNPEETRRKLIEEYKQQFANPYIAASRGYVDMVIDPRETRKYIMRALEVCETKVEYRPKKKHGNIPL”, the “soluble on expression in E. coli” value was “soluble”.
Regarding “MSLRLLPQPQQCVLAKGYFIVGKMQLSTPVLSQEWKQFVTEMGGTLTDQSASSINIKLVDAIDNVSVNKEEAYRLTITPKAITVEAVAERGVYWAMQTLYQLKEEKGKKNRLQCATITDWPAFRIRGFMQDVGRSYLSLEELKREIAILSRFKINTFHWHLTENQAWRLESKIFPMLNDSTNMTRMAGKYYTLEEARELTEFCKAHQVLLIPEIDMPGHSAAFIRTFRHDMQSPEGMKILKLLLDEICETFDVPYLHIGTDEVHFTNPQFVPEMVAYVRDKGKKVISWNPGWKYKAGEIDMMQLWSYRGKAQQGIPAIDSRFHYLNHFDTFGDIIALYNSRIYNADMGSDDLAGVIMGIWNDRLIDKEWNMVLENNFYPNMLAIAERSWRGGGTEYFDKQGTILPVDENSEVFRNFEDFESRMLWYKEHLFKGYPFAYVKQTHVKWNITDAFPNEGDLTKVFPPEEELKDSYTYEGKQYGVRPAIGAGIYLRHVWGKIVPAFYKDPQENHTAYAYTYVYSSKTQEVGLWAEFQNYGRSENDLPPLPGKWDYKESRIWINDQEILPPVWSATHLVKSSETALGNENCVARPPLRVHLHKGWNKVLLKLPVGKFSTNEVRLVKWMFTAVFVTPDGDKAVEGLIYSPEKEGHHHHHH”, the “soluble on expression in E. coli” value is given as “soluble”.
In the case of “MIYLRKLKKEDLMSLWEMAYSQLNPVWKQYDAPYYDDYQYFSNFKEFELQKSESILSNSNRLGIFVDDKLVGTVSRYWVCKETRWMELGIGIYDKKFWNTGIGKVAMLQWIDRTFQDYLELEHLGLTTWSGNIGMMKLAEKLRMKKEAHIPKVRYYQGKYFDSIKYGILREDWEKINDGYYQINGNS”, the “soluble on expression in E. coli” value is “not soluble”.
Take “MGHHHHHHSHMSHKNMKLKERVLIPVKQYPKFNFVGKILGPQGNTIKRLQEETGAKISVLGKGSMRDKAKEEELRKGGDPKYAHLNMDLHVFIEVFGPPCEAYALMAHAMEEVKKFLVPDMMDDICQEQFLELSYLNGVPEPS”: the “soluble on expression in E. coli” value is recorded as “not soluble”.
With “GPGSMLVPGYGSHLLRFGSTWVYITRAEDPSKQKAAAANRVDRENDKLTLTFFTRRRAVVQQFMKHVQESWRANVRNTVHIYLSEGYGPRWHLLSERIRRPLSTLYLPADTKAVVEEARLFLRLKDTYAALGIPWRRGYLLEGPPGTGKTSFVMALAGELGLPVHILSLRSANMDDDALLSLTSSLPRRSILLIEDLENVLKTPPGAGRSALSSGASDTAAVAAAETSAASPASPYSTDIGGGPRSAMSLSALLNALDGVSSSEGRLLLITTNDTSRIPFAEVLLRPGRVDRRIRFQPLHVEQLREMEASFQQALQASPCSAVENPRLPSARPSAHEDDRSVACTPAQYQQRLLDAVYASLTSRPRAESK”, the “soluble on expression in E. coli” value was “not soluble”.
As to “MGSDKIHHHHHHMERAAFGKLVQALRREHRDEKGRVWTQEVLAERTQLPKRTIERIENGSLAHLDADILLRLADALELTIGERREFFFAATGIIEQKSATYKRSPEESLQYLIDMIRNMNVPAFVTDQYVNIIAANMITIRFFNIPMELIETAPLLPHGYNLMRVVFGTEYDFRRVVGTMWDEVARHNMQLFRAISLRVRADGYFVELLDNLMQYREFKRFWERAHLETEDTSAENFWYQYTHPVYGLLSYVSSRSQIPTSMGLLSMHTYIPLSPATTDLFAKLSTVANQDVIRLAPWPRSNG”, the “soluble on expression in E. coli” value is on record as “not soluble”.
Take “MGSDKIHHHHHHMKIKNDLIYDEIHALKADLYQPDNASKGLIIDIHGGGWFRGDKAKDQDLAEALVKDGFSVIVPNYRLTPDAYYPAPLDDMDTLYHWIKTSSKLFDSDRIAVVGSSAGGNMAVEMGIKYGLPIVSLSGILDIDDWLNEHTAVIAQPDHKQDFTNSKSSEINQTGQNDAFYKWFVTNYFNGNSDQYSLATPYKHVNSQPGPMFLANSLNEFVPTSGVLEMAKILTSKNVPYVEWMLPGTQHAKGYLEIVYPTVLNFLNQYI”: the “soluble on expression in E. coli” value is given as “not soluble”.
The value for “MAAMPKPAAFWNDRFANEEYVYGEAPNRFVASAARTWLPEAGEVLLLGAGEGRNAVHLAREGHTVTAVDYAVEGLRKTERLATEAGVEVEAIQADVREWKPARAWDAVVVTFLHLPADERPGLYRLVQRCLRPGGRLVAEWFRPEQRTDGYTSGGPPDPAMMVTADELRGHFAEAGIDHLEAAEPTLDEGMHRGPAATVRLVWCRPSTSLEHHHHHH” was “soluble”; that for “SNAMRIGHGFDVHKFGENGSGPLIIGGVRIPYEKGLLAHSDGDVALHAATDALLGAAALGDIGKLFPDTDPAFKGADSRGLLREAYRRILAKGYKLGNLDITIIAQAPKMAPHIPQMRVNLAEDLQCHMDDINVKATTTEQLGFTGRGEGIACEAVVLLVNVEQG” was “soluble”.
As to “MQKEMEQDVKRFGQAAWATAIPRLEKLKLMLAQETLQLMRAKELCLNHKRAEIQGKMEDLPEQEKNINVVDELAIQFYEIQLELYEVKFEILKNKEILLTTQLDSLERLIKDEI”, the “soluble on expression in E. coli” value is “soluble”.
For the sequence “MNKRMKMCPACQQGYLYHSKPKYLHDEIILCDECDAVWLKGMNIFYGEYEKDFYSYVPFMESQGITSECIWEGDLFDHPYYEDENSNDMD”, the “soluble on expression in E. coli” value is reported as “not soluble”.
As to “MGSDKIHHHHHHMIPLFDLTRQYERIRGEILNAIDKLISSGNVILGENVRRLEEEIASFTGVKHGVGVASGSDALLIALRAMGVEKGDTVVTTPYTFFATASAPYRLGARVIFVDVDESTFNMDLNQLEHVLKKEKVKAIIPVHLFGRTVDLEALSFLREKYGVMILEDCAQSMGSEWKFSSGEIRKSGSVGDAAIFSFFPTKNLGTYGDGGMIVTNSDEIAEESRILRVHGARKKYFHEKVGYNSRLDEIHAAILRVKLRYLERWTEERTRVARTYQKLFEEKKLPVVYPRVEEKGFRYHVFHQYVVLFENEEVRERVREGLKERGIQTAIYYPLPLHLQKCFRDLGYQEGDFPVAESLSKRSLALPMFPELRDDEIKEVVDTIALFL”, the “soluble on expression in E. coli” value is recorded as “not soluble”.
As for “MNEINESYDTDSVREFTVSDADAGPYALAEGPDGALWFTLVHRGAVARRDPDDGRVTVHPVGDGPTVIAPGPDGALWFTEYRAHRIGRITPEGHYASFAPLTPEGGPFGITAGPDGAMWFTLSSADRVGRVTMDGEVTEHPAPGAFPSALTAGPDGALWCTLNQGNAIGRLTPDGHGTAYPLPTPGAAPVGIAAGPDGALWFTEIGAGRIGRITVTGDLTEYPLSDPAARPHAVTAGPNGALWFTEWGSGRVGRITVDGRVTSYPLSRTDCEPHGIAVHDGALWCALETGSLARIQVPA”, the “soluble on expression in E. coli” value is “soluble”.
Consider “MGAGSQTTGAGQKKVQTITVGTGTQFPNICFIDEKGDLTGYDVELIKELDKRLPHYKFTFKTMEFSNLLVSLGQHKVDIVAHQMEKSKEREKKFLFNKVAYNHFPLKITVLQNNDTIRGIEDLKGKRVITSATSNGALVLKKWNEDNGRPFEIAYEGQGANETANQLKSGRADATISTPFAVDFQNKTSTIKEKTVGNVLSNAKVYFMFNKNEQTLSDDIDKALQEIIDDGTLKRLSLKWLGDDYSKEQYLEHHHHHH”, for which the “soluble on expression in E. coli” value is listed as “soluble”.
“MARTDIRPIVKLRSTAGTGYTYTTRKNRRNDPDRLILRKYDPILRRHVDFREER”: the “soluble on expression in E. coli” value is recorded as “soluble”.
For the sequence “EGLNICKKIMVISDKNDAISEFIIKELERGCTIIDGKGGYTGKDTYILYTVLNRKEFIRLRIFIKETDPNAFITISDAKEVLGEGFKEI”, the “soluble on expression in E. coli” value was “not soluble”.
To “MTTAVARLQPSASGAKTRPVFPFSAIVGQEDMKLALLLTAVDPGIGGVLVFGDRGTGKSTAVRALAALLPEIEAVEGCPVSSPNVEMIPDWATVLSTNVIRKPTPVVDLPLGVSEDRVVGALDIERAISKGEKAFEPGLLARANRGYLYIDECNLLEDHIVDLLLDVAQSGENVVERDGLSIRHPARFVLVGSGNPEEGDLRPQLLDRFGLSVEVLSPRDVETRVEVIRRRDTYDADPKAFLEEWRPKDMDIRNQILEARERLPKVEAPNTALYDCAALCIALGSDGLRGELTLLRSARALAALEGATAVGRDHLKRVATMALSHRLRRDPLDEAGSTARVARTVEETLP” belongs “soluble”; to “MRFKVSKLMAYILRHSPWEFGLEPDEEGFVSIEELVNAVRKVYPWVTEEYIREIVERDEKGRYEIRGNKIRARYGHSYPVILRHEEDKESKVLYHGTVRRNLKGIMREGIKPMKRQYVHLSINYEDAYNTGRRHGEDVVVLIIDAECLRNKGYKILKAGKKVRIVKHVPVDCISGILLEHHHHHH”, “not soluble”; to “MSLEYKLTPSYLLKENMVLACGNILFADDGFSVHVIEKLQELLTEEEKENIALVDAGAGAPQQVLTLIDSEAKTKKIIVVDIIDYGLEPGEIKILTMDDLPKPEHTKVDSHDWPLSTTMYRVFRDAPHEIDFKVVGCQKKYVSEPDVVIELSEEVQNAVDVAVDIVLSELRGKPINEGHHHHHH”, “soluble”.
With “MYLPAHFAETRPEELARIIRAHPLGMLVTQDAQGLDADHLPFEFDPDAGPHGTLIAHVARANTLWQRCPDGSAVMVVFRGAEGYISPNWYPSKHEAHRQVPTWNYEVVHAHGTLAVRDDERFVRGVVARLTRRHEAGEPRPWKMTDSTPEYIDSMLRNIVGIEVAITSLVGKRKLSQNKDERDRLGAVQALQARGQDTLAQSMARAELEHHHHHH”, the “soluble on expression in E. coli” value is “not soluble”.
With “MHHHHHHSSGVDLGTENLYFQSMASGANFEYIIAEKRGKNNTVGLIQLNRPKALNALCDGLIDELNQALKIFEEDPAVGAIVLTGGDKAFAAGADIKEMQNLSFQDCYSSKFLKHWDHLTQVKKPVIAAVNGYAFGGGCELAMMCDIIYAGEKAQFAQPEILIGTIPGAGGTQRLTRAVGKSLAMEMVLTGDRISAQDAKQAGLVSKICPVETLVEEAIQCAEKIASNSKIVVAMAKESVNAAFEMTLTEGSKLEKKLFYSTFATDDRKEGMTAFVEKRKANFKDQ”, the “soluble on expression in E. coli” value is on record as “soluble”.
“MKKFKNILFATQGLPGHSDALEQAIQLAYNNRGQLAGLIAFPAFPADLQRYQEPYEQSYLNTLMETVEACRSQHHIHKDEVPFPLMVEHSEQPAVAIIKSALNHHIDLLIKEAEPMTHSQQGFKALDMTLLRKCPCPVWLHR”: the “soluble on expression in E. coli” value was “not soluble”.
